From patent US20220177594A1 (ZOETIS SERVICES, published 2022)
Numbering of substitutions follows the chain as printed. Where two headings read alike, the source gives them in different places. Blank lines part the entries; values can stand above or below the binder they belong to.

Key:
Human_OSMR [1] = molecular target: T1, Human_OSMR (human, UniProt Q99650 28-739); test: SPR Biacore
T1 construct: Bought protein; also called hOSMR
T1 sequence: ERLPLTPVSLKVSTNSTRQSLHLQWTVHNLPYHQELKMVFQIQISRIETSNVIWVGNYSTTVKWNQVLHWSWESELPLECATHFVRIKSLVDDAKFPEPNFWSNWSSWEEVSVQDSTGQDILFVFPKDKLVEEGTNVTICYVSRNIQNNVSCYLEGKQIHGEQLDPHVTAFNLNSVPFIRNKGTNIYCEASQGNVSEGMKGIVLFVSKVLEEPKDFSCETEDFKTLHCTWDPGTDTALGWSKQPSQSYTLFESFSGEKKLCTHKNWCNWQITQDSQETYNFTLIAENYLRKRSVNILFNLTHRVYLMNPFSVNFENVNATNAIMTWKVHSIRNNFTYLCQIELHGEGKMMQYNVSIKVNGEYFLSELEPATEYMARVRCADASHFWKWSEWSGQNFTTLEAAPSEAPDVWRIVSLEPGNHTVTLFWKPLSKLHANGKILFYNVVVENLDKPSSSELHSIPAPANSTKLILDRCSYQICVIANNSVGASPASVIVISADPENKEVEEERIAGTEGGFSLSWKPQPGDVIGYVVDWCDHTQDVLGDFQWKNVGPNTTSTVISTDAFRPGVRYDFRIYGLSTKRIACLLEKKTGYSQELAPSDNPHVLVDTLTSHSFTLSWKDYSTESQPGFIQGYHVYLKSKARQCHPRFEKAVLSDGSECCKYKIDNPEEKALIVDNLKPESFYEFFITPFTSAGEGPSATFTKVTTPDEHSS
Procedure: (§1) The affinity with which candidate mAbs bind canine, feline, and human (SEQ ID NO: 122; Human_OSMR) (R&D Systems, Minneapolis, Minn.) OSMR was determined using surface plasmon resonance (SPR) on a Biacore system (Biacore Life Sciences (GE Healthcare), Uppsala, Sweden). To avoid affinity differences associated with differential surface preparation that can occur when immobilizing antibodies to surfaces; OSMR from each species was directly conjugated to individual surfaces. Immobilization was obtained by amine coupling 5 μg/mL OSMR using N-hydroxysuccinimide (NHS)/1-Ethyl-3-(3-dimethylaminopropyl) carbodiimide (EDC) chemistry. Chips were quenched with ethanolamine and the affinity with which all candidate mAbs bound to the immobilized OSMR was evaluated. All curves were fit to a 1:1 model. […] Results for affinity measurements are described herein.
Caninized (canine) and felinized (feline) anti-OSMR antibodies were cloned, expressed, and purified. The sequence of each speciated antibody in Table 6 is described in Example 8. Affinity of these speciated antibodies to canine and feline OSMR was measured using Biacore. Table 5 describes results of these Biacore experiments for speciated antibodies that expressed and bound canine and/or feline OSMR. As indicated in the table, this first round of speciation produced antibodies from the 19F07, 09E09, and 10F07 lineage that expressed and bound to their protein target. For comparison to the mouse and mouse:canine chimeras having the same CDRs as these speciated versions, see Tables 1 and 3 respectively. […] Detailed here are the binding kinetics for antibodies that exemplify this goal.

[2] = molecular target: T2, canine OSMR on canine cells (canine, UniProt A0A8I3MI11 28-967); test: cell-based or functional assay
T2 sequence: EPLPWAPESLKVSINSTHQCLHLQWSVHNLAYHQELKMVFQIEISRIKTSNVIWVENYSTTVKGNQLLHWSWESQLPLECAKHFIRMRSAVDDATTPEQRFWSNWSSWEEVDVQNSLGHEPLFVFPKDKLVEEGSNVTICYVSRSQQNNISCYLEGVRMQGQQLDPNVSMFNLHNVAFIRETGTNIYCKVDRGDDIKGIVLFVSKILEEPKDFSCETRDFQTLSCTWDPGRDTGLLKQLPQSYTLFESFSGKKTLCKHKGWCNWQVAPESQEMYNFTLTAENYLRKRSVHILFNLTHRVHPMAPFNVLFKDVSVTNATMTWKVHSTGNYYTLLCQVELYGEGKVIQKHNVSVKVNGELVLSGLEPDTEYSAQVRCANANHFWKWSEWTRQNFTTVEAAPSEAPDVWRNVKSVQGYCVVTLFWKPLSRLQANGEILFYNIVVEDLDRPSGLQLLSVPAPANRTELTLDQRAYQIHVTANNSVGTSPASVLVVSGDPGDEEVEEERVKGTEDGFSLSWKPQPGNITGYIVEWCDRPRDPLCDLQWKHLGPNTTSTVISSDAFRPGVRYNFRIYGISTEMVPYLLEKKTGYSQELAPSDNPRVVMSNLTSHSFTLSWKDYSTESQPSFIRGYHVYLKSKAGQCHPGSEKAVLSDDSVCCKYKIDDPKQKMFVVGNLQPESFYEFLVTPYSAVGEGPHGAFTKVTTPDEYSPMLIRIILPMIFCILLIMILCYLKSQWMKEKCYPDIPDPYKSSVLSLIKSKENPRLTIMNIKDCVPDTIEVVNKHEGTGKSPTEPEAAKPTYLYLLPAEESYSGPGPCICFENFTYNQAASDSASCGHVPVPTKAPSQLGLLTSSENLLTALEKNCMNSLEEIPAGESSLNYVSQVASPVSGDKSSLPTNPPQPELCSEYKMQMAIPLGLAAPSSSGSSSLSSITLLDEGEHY

[3] = molecular target: T2, canine OSMR on canine cells; test: cell-based or functional assay; remark: listed apart in the source
Human_OSMR [4] = molecular target: T1, Human_OSMR; test: SPR Biacore, OSMR on chip
Procedure: as §1

[5] = molecular target: T3, ANTIBODY EXPRESSION CONTROL; test: SPR Biacore, expression control
T3 construct: also called mouse anti-canine antibody (capture reagent of the expression control ELISA)
Outline: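 Surface plasmon resonance with OSMR amine-coupled at 5 μg/mL via NHS/EDC, ethanolamine-quenched, and candidate mAbs flowed over as analyte. ka, kd and KD derived from 1:1 model fits.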

[6] = molecular target: T4, feline OSMR on feline Fcwf-4 cells (feline, UniProt A0ABI8A843 28-960); test: cell-based or functional assay
T4 sequence: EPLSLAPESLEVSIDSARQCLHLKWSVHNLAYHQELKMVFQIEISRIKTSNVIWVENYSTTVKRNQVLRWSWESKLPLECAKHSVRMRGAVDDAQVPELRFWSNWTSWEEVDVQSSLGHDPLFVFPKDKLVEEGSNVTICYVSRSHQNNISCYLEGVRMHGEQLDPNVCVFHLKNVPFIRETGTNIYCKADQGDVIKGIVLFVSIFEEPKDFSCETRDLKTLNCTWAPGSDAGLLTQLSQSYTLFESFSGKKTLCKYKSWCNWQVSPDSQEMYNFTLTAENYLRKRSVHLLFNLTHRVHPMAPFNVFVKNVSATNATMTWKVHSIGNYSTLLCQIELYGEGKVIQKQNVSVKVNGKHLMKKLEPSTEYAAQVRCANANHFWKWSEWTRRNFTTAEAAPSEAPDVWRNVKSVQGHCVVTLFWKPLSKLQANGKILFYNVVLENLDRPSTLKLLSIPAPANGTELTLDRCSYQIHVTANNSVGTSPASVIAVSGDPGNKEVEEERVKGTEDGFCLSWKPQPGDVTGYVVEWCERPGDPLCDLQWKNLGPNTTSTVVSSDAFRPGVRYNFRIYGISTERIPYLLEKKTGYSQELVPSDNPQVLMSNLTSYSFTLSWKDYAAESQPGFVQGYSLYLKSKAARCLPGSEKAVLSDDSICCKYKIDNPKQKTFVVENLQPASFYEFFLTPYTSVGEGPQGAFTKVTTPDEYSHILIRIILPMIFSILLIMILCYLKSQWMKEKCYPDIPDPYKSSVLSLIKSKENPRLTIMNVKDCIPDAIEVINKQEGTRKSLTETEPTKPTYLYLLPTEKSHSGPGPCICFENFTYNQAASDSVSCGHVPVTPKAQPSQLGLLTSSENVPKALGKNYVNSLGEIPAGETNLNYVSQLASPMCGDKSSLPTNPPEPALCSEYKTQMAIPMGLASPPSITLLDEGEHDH

[7] = molecular target: T4, feline OSMR on feline Fcwf-4 cells; test: cell-based or functional assay; remark: listed apart in the source

Kd (Human_OSMR [1]): 38.1 nM
koff (Human_OSMR [1]): 0.0039 s⁻¹
kon (Human_OSMR [1]): 102000 M⁻¹ s⁻¹
B1: Canine_OSM (ligand)
chain: SCSDKYPELLGQLQKQADFMQHTNTLLDLYIRSQGLDKNGLKEHCRERPGAFPSKDALQRLSRRVFLRTLDTTLGQVLLRLAALEQDIPKAQDLEMLSGVKLNIRGFKNNIHCMAQLLPGSSETTEPTPTSPGASPSPTPTLDTFQRRLEGCRFLHGYHRFMRSVGQVFREWGKSLSRSRR
notes: also called cOSM

IC50, inhibition of canine IL-31 pSTAT3 signaling, canine DH82 cells [2]: 0.03 µg/ml
IC50, inhibition of canine OSM pSTAT3 signaling, canine DH82 cells [2]: 0.2 µg/ml
IC50, inhibition of canine OSM pSTAT3 signaling, feline Fcwf-4 cells [6]: 0.28 µg/ml
IC50, inhibition of feline IL-31 pSTAT3 signaling, feline Fcwf-4 cells [6]: 0.05 µg/ml
IC50, inhibition of canine IL-31 pSTAT3 signaling, canine DH82 cells [3]: 0.05 µg/ml
IC50, inhibition of canine OSM pSTAT3 signaling, canine DH82 cells [3]: 0.16 µg/ml
IC50, inhibition of feline IL-31 pSTAT3 signaling, feline Fcwf-4 cells [7]: 0.32 µg/ml
binding result (Human_OSMR [4]): no binding
Kd [5]: 0.617 nM
koff [5]: 8.27e-05 s⁻¹
kon [5]: 134000 M⁻¹ s⁻¹
B3: mouse: canine 10F07 chimera (antibody, V domains shown)
VH: DVKLVESGEGLVKPGGSLKLSCAASGFTFSSYAMSWVRQTPEKRLEWVTYISSGGDYFYYADTVKGRFTISRDNARNTLYLQMSSLKSEDTAMYYCTRDPITGTFAYWGQGTLVTVSA
VL: DIQMTQTTSSLSASLGDRVTISCRASQDITNYLNWYQQKPDGTVKLLIYYTSTLHSGVPSRFSGSGSGTDFSLTISNLEQEDIATYFCQQGHMLPWTFGGGTKLEIKR
notes: Mouse variable domains on canine IgG constant regions; also called 10F07 (Mouse:Canine); mouse:dog chimera 10F07

The remaining lines, values behind:

B2: mouse: canine 09E09 chimera (antibody, V domains shown)
VH: B3 VH with T49A, F58I
VL: B3 VL with I2L, T30N, F71Y, H92N, M93T
notes: Mouse variable domains on canine IgG constant regions; also called 09E09 (Mouse:Canine); mouse:dog chimera 09E09
IC50, inhibition of canine IL-31 pSTAT3 signaling, canine DH82 cells [2]: 47.5 µg/ml
IC50, inhibition of canine IL-31 pSTAT3 signaling, canine DH82 cells [3]: 31.3 µg/ml
binding result (Human_OSMR [4]): no binding
Kd [5]: 0.0023 nM
koff [5]: 8.68e-07 s⁻¹
kon [5]: 374000 M⁻¹ s⁻¹

B4: mouse: canine 02D09 chimera (antibody, V domains shown)
VH: EVQLVESGGGLVKPGGSLTLSCAASGFTFSDYGMHWLRQAPEKGLEWVAYISSGSRAVFFADTVKGRFTISRDNAKNTLFLQMTSLRSDDTAMYYCARDRYDGRGFAYWGQGTLVTVSA
VL: DIVLTQSPATLSVTPGDSVSLSCRASQSISNNLHWYQQTSHESPRLLITYASQSISGIPSRFSGSGSGTDFTLSINSVETEDFGMYFCQQSNSWPLTFGAGTKLELKR
notes: Mouse variable domains on canine IgG constant regions; also called 02D09 (Mouse:Canine); chimeric 02D09
IC50, inhibition of canine IL-31 pSTAT3 signaling, canine DH82 cells [2]: 97.7 µg/ml
IC50, inhibition of canine IL-31 pSTAT3 signaling, canine DH82 cells [3]: 97.7 µg/ml
binding result (Human_OSMR [4]): no binding
Kd [5]: 0.6 nM
koff [5]: 9.15e-05 s⁻¹
kon [5]: 153000 M⁻¹ s⁻¹
